This note sets out measurements from patent publication US7247441B2, “Nucleic acid sequence and protein in addition to polypeptides coding for mannitol dehydrogenases or parts thereof and the production and use thereof in diagnosis and therapy” (Biomay Produktions- Und Handels-Aktienge Sellschaft, priority 2002, dated 2007).

Series [1] deals with IgE of patients' sera. In words: IgE immunoblots of Cladosporium herbarum crude extract with sera from 62 patients. In kind it is binding, human. The note with it: sera from 62 patients preselected in skin test or RAST, positive to Cladosporium herbarum extract. On the procedure:
For the purposes of the present invention, IgE immunoblots of Cladosporium herbarum crude extract were assayed with sera from 62 patients. An immunoreactive protein of molecular weight 29 kD, which was recognized by 61% of the patients' sera, was identified. […] No other allergen in the Cladosporium herbarum extract reacted with such a high percentage of patients' sera. It is therefore assumed that this protein is the major allergen of Cladosporium herbarum.
In general terms: A western blot detects proteins with antibodies after separation by electrophoresis.

For series [2], the system named is IgE antibodies of C. herbarum allergy sufferers. Nature of the series: IgE immune blot of the native purified MtDH after separation in the SDS gel. In kind it is binding, human. The method, then:
The protein was purified to homogeneity in a conventional method (example 1). The yield amounted to 1 mg.
Native purified MtDH was separated by molecular weight in a reducing SDS gel (Laemmli U K, Nature, 1970; 27:680–5). Subsequently, the protein was transferred onto a PVDF membrane in a Western blot (Towbin H et al., Proc. Natl. Acad. Sci USA, 1979; 76:4350–4). After free binding sites had been saturated (30 minutes in blocking buffer: 50 mM sodium phosphate pH 7.5, 0.5% Tween 20, 0.5% BSA, 0.05% NaN3), the membrane was incubated with patients' serum (1:10 diluted in blocking buffer). Then, the membrane was washed (with blocking buffer, 3×10 minutes) to remove unspecifically bound antibodies. Specifically bound IgE-Ab were detected with the aid of an ^125I-labeled rabbit anti-human IgE antibody. After the membrane had been exposed to an X-ray film, the result was available.

Series [3] has the same test system. Nature of the series: IgE immune blot of the native purified MtDH after 2-dimensional separation. In kind it is binding. The conditions noted are these: patients' serum 1:10, 125I-labeled anti-human IgE. An excerpt:
(§1) Native purified MtDH was separated under denaturing conditions in an isoelectric focusing (O'Farrel P H, J. Biol. Chem., 1975; 250:4007–21) according to the net charge (isoelectric point) of the protein. Thereafter, the protein separated thus was subjected to SDS gel electrophoresis (Laemmli U K, Nature, 1970; 27:680–5), whereby a separation by molecular weight took place in addition. The protein was transferred to a PVDF membrane in a Western blot (Towbin H et al., Proc. Natl. Acad. Sci. USA, 1979; 76:4350–4). After free binding sites had been saturated (30 minutes in blocking buffer: 50 mM sodium phosphate pH 7.5, 0.5% Tween 20, 0.5% BSA, 0.05% NaN3), the membrane was incubated with patients' serum (1:10 diluted in blocking buffer). Then, the membrane was washed (with blocking buffer, 3×10 minutes) to remove unspecifically bound antibodies. Specifically bound IgE-Ab were detected with the aid of an ^125I-labeled rabbit anti-human IgE antibody. After the membrane had been exposed to an X-ray film, the results were available: […]

Series [4] deals with T1, Cladosporium herbarum mannitol dehydrogenase (Cladosporium herbarum, UniProt P0C0Y5).
T1 construct: the enzyme activity was determined with the traditionally purified protein; from tissue; host or cells: Cladosporium herbarum extract (ammonium sulfate precipitation, HIC, anion exchange)
Nature of the series: Enzyme activity determination, absorption of NADPH at 340 nm. In kind it is biochemical. On the procedure:
The experiments reveal that the highly purified major allergen of Cladosporium herbarum is indeed a mannitol dehydrogenase which catalyzes the following metabolic reaction: Fructose+NADPH+H^+ ? mannitol+NADP^+. […] The method of the activity determination is described in example 3.
To confirm the results according to the invention, the enzyme activity was determined with the traditionally purified protein. The absorption of NADPH was measured in a photometer at 340 nm.
• 50 mM Tris-HCl, pH 7.5 • 0.25 mM NADPH or NADH • D-fructose or fructose-6-phosphate (0.1; 0.2; 0.4; 0.6; 0.8; 1.0; 1.2 M) • H2O to 1 ml • the reaction is started with 0.5 μl of MtDH Results: • Reaction with fructose and NADPH • No reaction with fructose-6-phosphate and NADH

Series [5] can be described thus: Two-dimensional separation by isoelectric focusing and SDS-PAGE. It is filed as physicochemical.
Text: as §1

Series [6] has as its system IgE of sera of Alternaria alternata-sensitized patients. Nature of the series: IgE immune blot of recombinant Alternaria alternata mannitol dehydrogenase with the sera of 28 patients. In kind it is binding, human. An excerpt: The following procedure was chosen for purifying the recombinantly produced protein, which is provided with a poly-His fragment at the C terminus: the E. coli cells with the expression vector, which express the foreign protein, the Alternaria alternata mannitol dehydrogenase, were first lysed in the customary manner. […] The inclusion bodies formed by overexpression of the foreign protein were first solubilized in a buffer with 6-molar urea and subsequently purified by affinity chromatography over a nickel chelate column. The recombinantly produced mannitol dehydrogenase was applied in 6 M urea buffer. Imidazole buffer was employed for the elution. The protein-comprising fractions were subsequently purified further by preparative SDS-PAGE gel electrophoresis and analyzed, during which process it emerged that the allergen was already purified to virtually complete homogeneity.
The protein prepared in accordance with example 10 was separated by gel electrophoresis and tested in an IgE immune blot with the sera of 28 patients. All of the 28 sera originated from patients who had shown a positive response to the Alternaria alternata crude extract and who had been pretested both in a skin test and in an RAST. A pronounced band was visible in the immune blot in the case of 9 of the patients' sera tested. This corresponds to approximately 32% of the Alternaria alternata-sensitized patients.

B1: native purified MtDH: major allergen of Cladosporium herbarum, a NADP-dependent mannitol dehydrogenase, 29 kD, seq. ID No. 8 (protein, listed as Cladosporium herbarum)
chain: MPGQQATKHESLLDQLSLKGKVVVVTGASGPKGMGIEAARGCAEMGAAVAITYASRAQGAEENVKELEKTYGIKAKAYKCQVDSYESCEKLVKDVVADFGQIDAFIANAGATADSGILDGSVEAWNHVVQVDLNGTFHCAKAVGHHFKERGTGSLVITASMSGHIANFPQEQTSYNVAKAGCIHMARSLANEWRDFARVNSISPGYIDTGLSDFVPKETQQLWHSMIPMGRDGLAKELKGAYVYFASDASTYTTGADLLIDGGYTTR
On to B1, for which the “patients' sera recognizing the protein” value in series [1] was 61%. The “reaction with IgE antibodies of C. herbarum allergy sufferers” value was “reacts specifically” in series [2] (SDS gel, patients' serum 1:10, 125I-labeled anti-human IgE) and “reacts specifically” in series [3]. The “result in the IgE immunoblot” value in series [2] (pool of six patients) is “highly positive”. The enzyme reaction result in series [4] (with fructose and NADPH) is “Reaction”; in series [4] (with fructose-6-phosphate and NADH), “No reaction”. In addition, the isoelectric point in series [5] is given as 5.8.

B2: protein prepared in accordance with example 10: recombinantly produced Alternaria alternata mannitol dehydrogenase, seq. ID No. 11, purified over a nickel chelate column, approximately 30 kD (protein, listed as Alternaria alternata)
chain: MPITVPQATELKDLFSLKGKVVIVTGASGPTGIGTEAARGCAEYGADLAITYNSRAEGAEKNAKEMSEKYGVKVKAYKCQVNEYAQCEKLVQDVIKDFGKVDVFIANAGKTADNGILDATVEQWNEVIQTDLTGTFNCARAVGLHFRERKTGSLVITSSMSGHIANFPQEQASYNVAKAGCIHLAKSLANEWRDFARVNSISPGYIDTGLSDFVPQDIQKLWHSMIPMGRDAKATELKGAYVYFASDASSYCTGSDLLIDGGYCVR
Take B2: the “share of Alternaria alternata-sensitized patients with a pronounced band” value in series [6] (28 sera) is recorded as “approximately 32%”. In series [6] (of 28 sera positive to Alternaria alternata crude extract), the “patients' sera with a pronounced band in the immune blot” value is given as 9.
